Test results published in paper PMC3858360.

Target: human Myo5a globular domain, Myo5a (1467–1855) (human) (UniProt Q9Y4I1)
Assay: SPR; Biacore 3000, 25°C; Myo5a GD covalently immobilised on a CM5 chip (50–100 RU); steady-state binding with a multi-injection protocol, HMM 0–413 nM; 20 mM MOPS-KOH pH 7.0, 0.1 M NaCl, 2 mM MgCl2, 0.5 mM EGTA, 10 µM Calmodulin, 1 mM TCEP

Sequence of UniProt Q9Y4I1 (Q9Y4I1 1467-1855): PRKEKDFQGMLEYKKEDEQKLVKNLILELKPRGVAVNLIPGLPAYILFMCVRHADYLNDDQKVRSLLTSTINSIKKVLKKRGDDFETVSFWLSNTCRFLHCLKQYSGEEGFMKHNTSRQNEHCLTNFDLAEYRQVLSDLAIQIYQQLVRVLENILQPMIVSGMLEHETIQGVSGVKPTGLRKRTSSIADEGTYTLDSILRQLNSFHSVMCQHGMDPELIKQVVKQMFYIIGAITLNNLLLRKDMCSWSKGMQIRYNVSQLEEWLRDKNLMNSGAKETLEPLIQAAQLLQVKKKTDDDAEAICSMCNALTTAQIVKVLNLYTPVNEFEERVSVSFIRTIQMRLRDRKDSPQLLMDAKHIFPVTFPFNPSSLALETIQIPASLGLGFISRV

Kd: 30 nM
Substance: murine Myo5a HMM complex: Myo5a (1–1105) C-terminally fused to GCN4-Flag, coexpressed with essential light chains and calmodulins (from UniProt Q99104 1-1105; P0DP26 1-149)
